The target of series [1] is SauCas9 (N580A/C946A) (Staphylococcus aureus) (UniProt J7RUA5). Description: crystal structure; SauCas9 (N580A/C946A)-sgRNA-AcrIIA14ct-dsDNA quaternary complex, mixed at 1:1.2:5:2, purified by SEC; hanging drop, 20°C; 2.22 Å.
The target in series [2] is Staphylococcus aureus Cas9 (SauCas9), wild type (Staphylococcus aureus) (UniProt J7RUA5). Description: BLI; biotinylated SauCas9 protein (or SauCas9-sgRNA complex) loaded on streptavidin biosensors for 60 s; 20°C; 20 mM HEPES pH 7.55, 100 mM KCl, 10 mM MgCl2, 1 mM DTT, 5% glycerol; four or five concentrations of sample. On the technique in general: BLI is a label-free optical method that tracks binding on a fibre tip over time.

Series [3] deals with SauCas9 (Staphylococcus aureus). Nature of the series: BLI. The conditions noted are these: 10 mM Mg2+, BLI: 20 mM HEPES pH 7.55, 100 mM KCl, 10 mM MgCl2, 1 mM DTT, 5% (w/v) glycerol, 20 C, complex for crystals: 10 mM Tris-HCl pH 8.0, 300 mM NaCl, 3 mM DTT.

Regarding “AcrIIA14ct (C-terminal domain of AcrIIA14, residues 60-159) (domain or fragment)”, the stoichiometry N (AcrIIA14ct per SauCas9) in series [1] worked out at 1. Besides, in series [2], the Kd (as a rule, the concentration at which binding is half-saturated) was 0.00558 nM.

On to “AcrIIA14ct mutant H56K (domain or fragment)”, for which the Kd in series [2] turned out to be 58 nM. This lies in the double-digit nanomolar range.

As to SauCas9 sgRNA (BLI), the Kd in series [3] (biotinylated SauCas9 on streptavidin sensor) is 0.473 nM.

Consider SauCas9 sgRNA / target DNA (BLI), for which, in series [3] (target DNA as analyte, SauCas9-sgRNA complex presumably immobilized), the Kd came out at 0.535 nM.

(Values after paper PMC8216286.)
